The values that follow come from the nanobody polyreactivity screen of Harvey et al. (2022).

A short description of this data set: yeast display, Sf9 membrane polyspecificity reagent, FACS + sequencing; frameworks hold sequencing errors. The essentials:
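Nanobodies came from a synthetic yeast display library in Saccharomyces cerevisiae BJ5465, induced with galactose for 36–48 hours and stained for 1 hour at 4 °C with 10% biotinylated, detergent-solubilized Sf9 membrane reagent. Cells were enriched on streptavidin microbeads and then FACS-sorted, with low and high (top ~1%) gates set on anti-HA fluorescence for expression and streptavidin fluorescence for reagent binding. Each polyreactivity label reflects the gate a clone came from. Genes were amplified by colony PCR, sequenced by MiSeq 2 × 250 and filtered by CDR length.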
Consider “QVQLVESGGGLVQAGGSLRLSCAASGFIFGYYAMGGYRQAPGKERELVATIRQTGGSTRYADSVKGRFTISRDNAKNTVYLQMNSLIPEDTAVYYCAAYKWPSWRTWPYDSWGQGPQVTVSS”, for which the “polyreactivity (PSR sort gate)” value is “high polyreactivity”. Turning to “QVQLVESGGGLVQAGGSLRFSCAASGRIFRFYAMGWYRQAPGKERELVAAISSRGGSTYYADSVKGRFTISRDNAKNTVYLQMNSLKPEDTAVYYCNAYGSTSQLDYWGQGTQVTVSS”, the “polyreactivity (PSR sort gate)” value was “high polyreactivity”. Regarding “QVQLVESGGGLVQAGGSLSLSCAASGSTFTYYDMGWYRQAPGKERELVAAISSSGGRTYYSDSVKGRFTISRDNAKNTVYLQMNSLKPEDTAVYYCARVVRPTDGDYWGQGTQVTVSS”, the “polyreactivity (PSR sort gate)” value is on record as “high polyreactivity”. The entry for “QVQLVESGGGLVQAGGSLRLSCAASGSIFGSYAMGWSRQAPGKERELVAAISKSGGNTYYADSVKGRFTISRDNAKNTVYLQMNSLKPEDTAVYYCAAYGFYRWRGYDYWGQGTQVTVSS” is “high polyreactivity”. Then “QVQLVESGGGLVQAGGSLRLSCAASGSIFGSYAMGWYRQAPGKEREFVAGIDQSGSSTYYADSVKGRFTISRDNAKNTVYLQMNSLKPEDTAVYYCNAVWYFYSTYRKYYYWGQGTQVTVSS”, with “high polyreactivity”; and “QVQLQESGGGLVQAGGSLRLSCAASGSISGPQVMVWYRQAPGKEREFVAAINVGANTYYADNVKGRFTISRDNAKNTVYLQMNSLKPEDTAVYYCAAVYYGDIGHESWGQGTQVTVSC”, with “low polyreactivity”.

Take “QVQLVESGGGLVQAGGSLRLSCAASGRIFDYYAMGWYRQAPGKERELVAGITSDGDITYYADSVKGRFTISRDNAKNTVYLQMNSLKPEDTAVYYCAADSPHPVRYDYWGQGTQVTVSS”: the “polyreactivity (PSR sort gate)” value was “low polyreactivity”. Then “QVQLVESGGGLVQAGGSLRLSCAASGSIFVGNAMGWYRQAPGKERELVSTISRGARTKYADSVKGRFTISRDNAKNTVYLQMNSLKPEDTAVYYCNKVSSYYVFYTPYYSWGQGTQVTVSS”, with “low polyreactivity”; and “QVQLVESGGGLVQAGGSLRFSCAASGFTFPYYAMGWYRQAPGKERELVAAITGRGGSSYYADSVKGRFTISRDNAKNTVYLQMNSLKPEDTAVYYCAARRSSRSKRLNYWGQGTQVTVSS”, with “high polyreactivity”; and “QVQLVESGGGLVQAGGSLRISCAASGSTFYRNAMGWYRQAPGKERELVARISSRGGRTSYADSVKGRFTISRDNAKNNVYFQMNSLKPEDTAVYYCAADYYVNRIQRYDYWGQGTQVTVSS”, with “high polyreactivity”. Regarding “QVQLVASGGGLVQSGGSLRLSCAASGSTITWYAMGWYRQAPGKDRELVARISSGDRPNYADSVKGRFTISRDNAKNTVYLQMNSLKPEDTAVYYCNADYGQPSYYDDGDYWGQGTQVTVSS”, the “polyreactivity (PSR sort gate)” value was “low polyreactivity”.

“QVQLVESGGGLVQAGGSLRLSCAASGRIFVRYAMGWYRQAPGKERELVAAISWSAGSTYYADSVKGRFTISRDNAKNTVYLQMNSLKPEDTAVYYCAAEYGNYETGHYGIYDYWGQGTQVTVSS”: the “polyreactivity (PSR sort gate)” value is given as “low polyreactivity”.

Take “QVHLVESGGGLVQAGGSLRLSCAASGFTFDFYAMGWYRQAPGKERELVAAISKNDGTTYYADSVKGRFTISRDNAKNTVYLQLNSLKPEDTAVYYCAAESGYPVYTYVSSGDYWGQGTQVTVSS”: the “polyreactivity (PSR sort gate)” value is reported as “low polyreactivity”. Then “QVQLVESGGGLVQAGGSLRLSCAASGSTFHLYAMGWNRQAPGKEREFVAAIRGRGGNTYADSVKGRFTISRDNAKNSGYLQMNSLKPEDTAVYYCAARTHYDSDYWGQGTQVTVSS”, with “low polyreactivity”; and “QVQLVESGGGLVQAGGSLRLSCAASGRIFHTYGMGWYRQAPGKVRELVAAITWTGGSTYYADSVKGRFTISRDNAKNTVYLQMNSLKPEDTAVYYCNARYVYHSSFAGFDYWGQGTQVTVSS”, with “low polyreactivity”; and “QVQLVESGGGLVQAGGSLRLSCAASGSIITPNAMGWYRQAPGQERELVAAISSGGSTNYADSVKGRITISRDNAKNTVYFQLTCLKPEDTAVYYCAKSIDGWYWRRRRYDYWGQGTQVTVSS”, with “low polyreactivity”. With “QVQLVESGGGLVQAGGSLRLSCAASGRIFDYYAMGWYRQAPGKERELVARISIGGSTYADSVKGRFTISRDNAKNTVYLQMNSLKPEDSAVDYCADSTIRLVGYRTYWGPRYDYWGQGTQVTVSS”, the “polyreactivity (PSR sort gate)” value was “low polyreactivity”. The entry for “QVQLVESGGGLVQAGGSLSLSCAASGLTFYNYAMGWYRQAPGTERELVAAISRSGRTYYADSVKGRFTISRDNAKNTVDLQMNSLKPEDTAVYYCAAGHGGDPGSGYWGQGTEVTVSS” is “high polyreactivity”; for “QVKLVESCGGLVQAGGSLRLSCAASGYISSFNTKGWYRQAPGKERELVAAITRDGSTYYADSVKGRFTISRDNAKNSVYLQMNSLKPEYTAVYYCAARGWYATWLYYYWGQGSQVTVSS” it is “high polyreactivity”. The entry for “QVQLVESGGGLVQAGGSLRLSCAASGLIFLWYAMGWYRQAPGKERELVAAIRSSGDSTYYADSVKGRFTISRDNAKNTVYLQMNSLKPEDTAVYYCNRRKTNSRYDYCGQGTQVTVSS” is “low polyreactivity”; for “QVQLVESGGGLVQAGGSLRLSCAASGIIFGTYAMGWYRQAPGKERELVAAITRSGGSTYYADSVMGRFTISRDNAKNTVYLQMNSLKPEDTAVYYCAASSTWYGYYIYVFRAYDYWGQGTQGTVSS” it is “low polyreactivity”; for “QVQLVESGGGLVQAGGSLRLSCAASGSTFVYYAMGWYRQAPGKERELVAAITSGDSTYYADSVKGRFTISRDNAKNTVYLQMNSLKPEDTAVYYCAKRGGYKWIYGYWGQGTQVTVSS” it is “low polyreactivity”. The entry for “QVRLVESGGGLVQAGGSLRLSCAASARILPYYPMGWYRQAPGKERELVAAISWSGGRTYYADSVKGRFTISRDNAKNTVYLQMNSLKPEDTAVYYWATRRVTHVPGSSRYDYWGQGTQVTVSS” is “low polyreactivity”; for “QVQLVESGGGLVQAGGSLSLICAASGRTSVVNAMGWYRKAPGKERELVAAITSGGSTHYADSVKGRFTISRDNAKNTVYLQMNSLKPEDTAVYYCTKRGHPARLGYYYWGQGTQVTVSS” it is “low polyreactivity”; for “QVQLVESGGGLVQAGGSLRLSCAASGITFYKYTMGWYRQAPGKERELVAAISVRGGRTYYADSVKGRFTISRDNAKNTVYLQMNSLKPEDTAVYYCNRVPKDAYDYWGQGTQVTVSS” it is “high polyreactivity”. Turning to “QVQLVESGGGLVQAGGSLRLSCAASGSILESNVMGWYRQAPGKERELVASISSSGDSTYADSVKGRFTISRDNAKNTVYLQMNRLKPEDTAVYYCASDRLYWTYALYYWGQGTQVNVSS”, the “polyreactivity (PSR sort gate)” value is recorded as “low polyreactivity”.

As for “QVQLVESGGGLVQAGGSLRLSCAASGFTFYDNAMGWYRQAPGKERELVAAISWGGGSTYYADSVKGRFTISRDNAKNTVYLQMNSLKPEDTAVYYCNVYYGRVLLGFYYWGQGTQVTVSS”, the “polyreactivity (PSR sort gate)” value was “low polyreactivity”. “QVQLVESGGGLVQAGVSLRLSCAASGFTFSRYGMGWYRQTPGKERELVAAITWSGGNTNYADSVKGRFTISRDNAKNTVYLQMNSLKPEDTAVYYCNAPRGYWSQSHFDYWGQGTQVNVSS”: the “polyreactivity (PSR sort gate)” value is “high polyreactivity”.

“QVQLVESGGGLVQAGGSLRLSCAASGGIFWANAMGWHRQAPRKERELVATIHTIGDGTNYADSVKGRFTISRDNAKNTVYLQMNSLKPEDTAVYYCAAPYYYFAVYYGYIFEYDYWGQGTQVTVSS”: the “polyreactivity (PSR sort gate)” value is on record as “low polyreactivity”. The entry for “QDQLVDSGGGLVQAGGSLRLSCAASGFNFGYYAMGWYRQAPRKERELVAAISRSGGRTYYADSVKGRFTISRDNAKNTVYLQMNILNPEDTAVYYCNARHYLSAYDYWGQGTQVTVSS” is “high polyreactivity”.

Consider “QVQLVESGGGLVQAGGSLRLSCAASGSIFGSNMGWYRQAPGKERELVAAISSRGGRTYYADSVKGRFTISRDNAKNTVYLQMNSLKPEDTAVYYCATRTFRGCRGYEYWGQGTQVTVSS”, for which the “polyreactivity (PSR sort gate)” value is on record as “high polyreactivity”. Then “QVQLVESGGGLFQAGGRLRLSCAASGRNCNAYTMGWYRQAPGKERELVAAISRRGGSTYYADSVKGRFTISRDNAQNTVSLQMNSLNPEDTAVYYCATKSQYDYDYWGQGTQVTVSS”, with “high polyreactivity”; and “QVQLVESGGGLVQAGGSLRLSCAASGITFEWYDMGWYRQAPGKEKDLVAAISQSGASTYYADSVKGRFTISRDNAKNTVYLQMNSLKPEETAVYYCATRARYVGGYKYNYWGQGTQVTVSS”, with “high polyreactivity”. As to “QVQLVESGGGLVQAGGSLRLSCAASGFTFTYYAMGWYRQAPGKERELVAGITRSGGSTYYADSVKGRFTISRDNAKNTVYLHMNSLKPEDTAVYYCAAVGSLYYYRYDYWGQGTQVTVSS”, the “polyreactivity (PSR sort gate)” value is reported as “high polyreactivity”. In the case of “QVQLVESGGGLVQAGGSLRLRCAASGRTFDTYAMGWYRQAPWKERELVASITYRGGSTYYADSVKGRFTISRDNGKNTVYLQLNSLKPVDTAVYYCNAKVKRNKRWRGYWGQGTQVTVSS”, the “polyreactivity (PSR sort gate)” value is on record as “high polyreactivity”.

As for “QVQLVESGGGLVQAGGSLRLSCAASGRTFYDNAMGWYRQAPGKERELVAAITKSGGRTYYADSVKGRFTISRDNAKNTVYLQMNSLKPEDTAVYYCAASWPNYLYEYWGQGTQVTVSS”, the “polyreactivity (PSR sort gate)” value is “high polyreactivity”.

“QVQLVESGGGLVQAGGSLRLSCAASGSIFYFYAMGWYRQAPGKERELVAAISRSVGSTNYADSVKGRFTISRDNAKNTVYLQMNSLKPEDTAVYYCAARRYGAYYWGQGTQVTVSS”: the “polyreactivity (PSR sort gate)” value is reported as “high polyreactivity”.

Consider “QVQLVESGGGLVQAGGSLRLSCAASGFIFDQNAMGWYRQAPGKERELVAAISKRGGSTYYADSVKGRFTISRDTAKNTVYLQMNSLKPEDTAVYYCATRSWGPYYYGYNHWGQGTQVTVSS”, for which the “polyreactivity (PSR sort gate)” value is listed as “high polyreactivity”.

On to “QVQLVESGGGLVQAGGSLRLSCAASGRTFVRYAMGWYRQAPGKERELVAAISTSGGNTYYADSVKGRFTISRDNAKNTVYLQMNSLKPEDTAVYYCAKDRGPNAKFDYWGQGTQVTVSS”, for which the “polyreactivity (PSR sort gate)” value is “low polyreactivity”.

Consider “QVQLVESGGGLVQAGGSLRLSCAASGLTFQLYTMGWYRQAPGKERELVAAISRSGTRTYYADSVKGRFTISRDNAQNTVYLQMNSLKPEDTAVYYCAARTDGYRNNYWGQATQVTVSS”, for which the “polyreactivity (PSR sort gate)” value is “high polyreactivity”.

As to “QVQLVESGGGLVQAGGSLRLSCAASGRIFTPNAMGWCRQAPGKERELVAAITWSGDNTYADSVKGRFTISRDNAKNTVYLQMNSLKPEDTAVYYCAAAYGYGHKKYGYWGQGTQVTVSS”, the “polyreactivity (PSR sort gate)” value is on record as “low polyreactivity”.
